Laboratory results taken from paper PMC3320033 (Virology, 2012).

Target: the molecule itself
Experiment: cryo-EM structure

Protein | stoichiometry N
Sf6 portal protein (gp3) (natural protein, bacteriophage Sf6, UniProt Q716H2 1-708, looked up) MAETLEKKHERIMLRFDRAYSPQKEVREKCIEATRFARVPGGQWEGATAAGTKLDEQFEKYPKFEINKVATELNRIIAEYRNNRITVKFRPGDREASEELANKLNGLFRADYEETDGGEACDNAFDDAATGGFGCFRLTSMLVNEYDPMDDRQRIAIEPIYDPSRSVWFDPDAKKYDKSDALWAFCMYSLSPEKYEAEYGKKPPTSLDVTSMTSWEYNWFGADVIYIAKYYEVRKESVDVISYRHPITGEIATYDSDQVEDIEDELAIAGFHEVARRSVKRRRVYVSVVDGDGFLEKPRRIPGEHIPLIPVYGKRWFIDDIERVEGHIAKAMDPQRLYNLQVSMLADTAAQDPGQIPIVGMEQIRGLEKHWEARNKKRPAFLPLREVRDKSGNIIAGATPAGYTQPAVMNQALAALLQQTSADIQEVTGGSQAMQQMPSNIAQETVNNLMNRADMASFIYLDNMAKSLKRAGEVWLSMAREVYGSEREVRIVNEDGSDDIAVLSAQVVDRQTGAVVALNDLSVGRYDVTVDVGPSYTARRDATVSVLTNVLSSMLPTDPMRPAIQGIILDNIDGEGLDDFKEYNRNQLLISGIAKPRNEKEQQIVQQAQMAAQSQPNPEMVLAQAQMVAAQAEAQKATNETAQTQIKAFTAQQDAMESQANTVYKLAQARNIDDKAVMEAIRLLKDVAESQQQQFQSPPQSPADLMPS | 12
Sf6 tail plug protein gp7 (natural protein, bacteriophage Sf6, UniProt Q716G8 1-160, looked up) MATVLTKGEIVLFALRKFAIASNASLTDVEPQSIEDGVNDLEDMMSEWMINPGDIGYAFATGDEQPLPDDESGLPRKYKHAVGYQLLLRMLSDYSLEPTPQVLSNAQRSYDALMTDTLVVPSMRRRGDFPVGQGNKYDVFTSDRYYPGDLPLIDGDIPNA | 12
Sf6 tail needle (gp9) (natural protein, bacteriophage Sf6, UniProt Q716G6 1-282, looked up) MADSNLNVPVIIQATRLDTSVLPRNIFSQSYLLYVIAQGTDVGNVANKANEAGQGAYDAQVRNDEQDVILADHEQRISAAEATLVNHEERIRQAESTLQDHETRIAQNESDISSLDTRVQSLESQVSDHETRIDALEYATTRKKSEVVYSGVSVTIPTAPTNLVSLLKTLTPSSGTLAPFFDTVNNKMVVFNENKTLFFKLSIVGTWPSGTANRSMQLTFSGSVPDTLVSSRNSATTTDNILLATFFSVDKDGFLATNGSTLTIQSNGASFTATTIKIIAEQ | 3
Sf6 tail plug protein gp8 (natural protein, bacteriophage Sf6, UniProt Q716G7 1-472, looked up) MPIQQLPLMKGVGKDFRNADYIDYLPVNMLATPKEILNSSGYLRSFPGIAKRSDVNGVSRGVEYNMAQNAVYRVCGGKLYKGESEVGDVAGSGRVSMAHGRTSQAVGVNGQLVEYRYDGTVKTVSNWPTDSGFTQYELGSVRDITRLRGRYAWSKDGTDSWFITDLEDESHPDRYSAQYRAESQPDGIIGIGTWRDFIVCFGSSTIEYFSLTGATTAGAALYVAQPSLMVQKGIAGTYCKTPFADSYAFISNPATGAPSVYIIGSGQVSPIASASIEKILRSYTADELADGVMESLRFDAHELLIIHLPRHVLVYDASSSANGPQWCVLKTGLYDDVYRAIDFIYEGNQITCGDKLESVTGKLQFDISSQYGLQQEHLLFTPLFKADNARCFDLEVESSTGVAQYADRLFLSATTDGINYGREQMIEQNEPFVYDKRVLWKRVGRIRKNVGFKLRVITKSPVTLSGAQIRIE | 6
